# B1: 454C, COOH-terminal half of scruin (domain or fragment)
# chain: MQQGDSSGSTMLEGNDRISGRIRTYISGYRPLPPDQDDLSKELVPVSIPFWPPDPDTTDSVFHTVRDQYRNPEEQMGFKHFYTIPRQMDPNLGMLLFMDEDYQHSKKVLGLRSVESVPYYINRFQASGTIQDNTIPVIIGTGGVDLRDPMNIAYGRSVFQYHPLKDRWEFFGYMPQPRNYHAAAYYRSAIYITGGYDPDVRTWGEMVATKTTFVYELASKNWTRMGDMRCARSHHSLLVFNDVLYAIGGRDDIGRLVSSVESYDHESNEWTMEKSMPSPRMGMAAVAHGGYIWLLGGLTSMTTEEPPVLDDVLCYDPVFKHWVDGRPLRIGRAFGNAAVCDNKIWLCGGAAPSTDENNYLVSVPAIDVYDEETMEWKQKTSLGCPRHSAIVVALESCLYIAGGVNSHELSATSRNELYMVDNDTIQTVRELPIPLTGMAAVTIPPKCVTFRSESLSIMIRHKVTP
# B2: 590C, smaller COOH-terminal fragment of scruin (domain or fragment)
# chain: VIIGTGGVDLRDPMNIAYGRSVFQYHPLKDRWEFFGYMPQPRNYHAAAYYRSAIYITGGYDPDVRTWGEMVATKTTFVYELASKNWTRMGDMRCARSHHSLLVFNDVLYAIGGRDDIGRLVSSVESYDHESNEWTMEKSMPSPRMGMAAVAHGGYIWLLGGLTSMTTEEPPVLDDVLCYDPVFKHWVDGRPLRIGRAFGNAAVCDNKIWLCGGAAPSTDENNYLVSVPAIDVYDEETMEWKQKTSLGCPRHSAIVVALESCLYIAGGVNSHELSATSRNELYMVDNDTIQTVRELPIPLTGMAAVTIPPKCVTFRSESLSIMIRHKVTP
# Target: the molecule itself
# Assay: negative-stain electron microscopy + sedimentation assay
protein,measurement,value
B1,binding result,binds
B2,binding result,binds

# — publication PMC2120335 (The Journal of Cell Biology, 1995)
